Measurements published in article PMC7608914, “Bridging of nucleosome-proximal DNA double-strand breaks by PARP2 enhances its interaction with HPF1”.

Experiments:
Settings in all cases: protein: recombinant; (HisTrap purified); label: 6-FAM on 5' end of bottom strand; blunt
[1] = target: T1, PARP2-WT (Homo sapiens, UniProt Q9UGN5-2 1-570); assay: fluorescence polarization; 60 mM KCl, 8 mM MgCl2; FP/FRET: 50 mM Tris-HCl pH 8, 50 mM NaCl, 1 mM MgCl2, 0.1 mM EDTA, 0.1 mM TCEP, 0.01% NP-40, temperature not stated; EMSA: 20 mM Tris pH 7.5, 1 mM EDTA, 1 mM DTT, 4 C
[2] = target: T2, PARP2-QFRD (Homo sapiens, UniProt Q9UGN5-2 1-570, Q112R;F113D); assay: as above
[3] = target: T2, PARP2-QFRD; assay: fluorescence polarization; 50 mM NaCl, 1 mM MgCl2; Hill 0.9; FP/FRET: 50 mM Tris-HCl pH 8, 50 mM NaCl, 1 mM MgCl2, 0.1 mM EDTA, 0.1 mM TCEP, 0.01% NP-40, temperature not stated; EMSA: 20 mM Tris pH 7.5, 1 mM EDTA, 1 mM DTT, 4 C
[4] = target: T1, PARP2-WT; assay: fluorescence polarization; 50 mM NaCl, 1 mM MgCl2; Hill 1.2; FP/FRET: 50 mM Tris-HCl pH 8, 50 mM NaCl, 1 mM MgCl2, 0.1 mM EDTA, 0.1 mM TCEP, 0.01% NP-40, temperature not stated; EMSA: 20 mM Tris pH 7.5, 1 mM EDTA, 1 mM DTT, 4 C

B1: p18mer_fluorescein (dsDNA)
DNA 1: GGGTTGCGGCCGCTTGGG
DNA 2: CCCAAGCGGCCGCAACCC
modifications: 5'-phosphate on top strand
[1]
  Kd: ~240 nM
[2]
  Kd: ~240 nM
[3]
  Kd: 17.1 ± 1.8 nM
[4]
  Kd: 11.1 ± 0.4 nM
